From PMC5290273 (Nature Communications, 2017)

B1: Sumo-ELL2^Occ, wild type [human] / fluorescently labelled AFF1^ELLBow peptide 358–390 [modified: C-FAM-GABA- at the N-terminus (FAM: 5-carboxyfluoroscein; GABA: γ-amino-butyric acid spacer); C-terminal amide; C-FAM-GABA- at the N-terminus … (parent complex)
chain 1: EPSAIELPDYLIKYIAIVSYEQRQNYKDDFNAEYDEYRALHARMETVARRFIKLDAQRKRLSPGSKEYQNVHEEVLQEYQKIKQSSPNYHEEKYRCEYLHNKLAHIKRLIGEFDQQQAESWS
chain 2: EILKEMTHSWPPPLTAIHTPSTAEPSKFPFPTK
B2: His6-tagged wild-type AFF4^ELLBow (AFF4 301–351) [human] / Sumo-ELL2^Occ, wild type [human] (parent complex)
chain 1: PSQPLDASASGDVSCVDEILKEMTHSWPPPLTAIHTPCKTEPSKFPFPTKE
chain 2: B1 chain 1

Variants of: B1
Test: fluorescence polarisation, direct titration; signal at the highest Sumo-ELL2 concentration, about 30 µM read from the x axis; read off a plot

response | Variant
~7 mP | chain 1 H41E, chain 1 H90E, chain 1 N101A, chain 1 K107T

Variants of: B2
Test: fluorescence polarisation competition; residual anisotropy at the highest unlabelled AFF4 concentration, about 30 µM read from the x axis; higher residual anisotropy = weaker competition; read off a plot

response | Variant
~7 mP | chain 1 D17P, chain 1 E18P

Variants of: B2
Test: as above
Remark: another data set of the same source

response | Variant
~17 mP | chain 1 L31D, chain 1 I34D
~63 mP | chain 1 M23D, chain 1 L31D, chain 1 I34D
~46 mP | chain 1 W27D, chain 1 L31D, chain 1 I34D
